# T1: CMV pp65 peptide on HLA-A*11:01 (human)
# T1 peptide: ATVQGQNLK
# Key:
# [1] = molecular target: CMV pp65501-509 antigen complex on Caki-2-PP65 target cells (human; human cytomegalovirus, UniProt P61769 21-119); experiment: cell-based or functional assay
# [2] = molecular target: T1, CMV pp65 peptide on HLA-A*11:01; experiment: multimer staining
binder,measurement,setting,value
"Tenth group of TCR (TCR, V domains shown) V domain 1: QTVTQSQPEMSVQEAETVTLSCTYDTSESDYYLFWYKQPPSRQMILVIRQEAYKQQNATENRFSVNFQKAAKSFSLKISDSQLGDAAMYFCAYRSFYTGANSKLTFGKGITLSVRP V domain 2: DAGVTQSPTHLIKTRGQQVTLRCSPKSGHDTVSWYQQALGQGPQFIFQYYEEEERQRGNFPDRFSGHQFPNYSSELNVNALLLGDSALYLCASSLYGGPGDQPQHFGDGTRLSILE","killing activity at 4 h (RTCA), Caki-2-PP65 target cells, effector-to-target ratio 1:1",[1],23.5%
same,"killing activity at 4 h (RTCA), Caki-2-PP65 target cells, effector-to-target ratio 5:1 (ratio cell blank in this row, taken from r7)",[1],61.2%
same,"killing activity at 4 h (RTCA), Caki-2-PP65 target cells, effector-to-target ratio 10:1",[1],67.4%
"Ninth group of TCR (TCR, V domains shown) V domain 1: EDQVTQSPEALRLQEGESSSLNCSYTVSGLRGLFWYRQDPGKGPEFLFTLYSAGEEKEKERLKATLTKKESFLHITAPKPEDSATYLCVITTSGTYKYIFGTGTRLKVLA V domain 2: NAGVTQTPKFQVLKTGQSMTLQCAQDMNHNSMYWYRQDPGMGLRLIYYSASEGTTDKGEVPNGYNVSRLNKREFSLRLESAAPSQTSVYFCASTINTYEQYFGPGTRLTVTE","killing activity at 4 h (RTCA), Caki-2-PP65 target cells, effector-to-target ratio 1:1",[1],7.1%
same,"killing activity at 4 h (RTCA), Caki-2-PP65 target cells, effector-to-target ratio 5:1",[1],44.5%
same,"killing activity at 4 h (RTCA), Caki-2-PP65 target cells, effector-to-target ratio 10:1",[1],61.5%
"Ninth group of TCR (TCR, V domains shown) Valpha: EDQVTQSPEALRLQEGESSSLNCSYTVSGLRGLFWYRQDPGKGPEFLFTLYSAGEEKEKERLKATLTKKESFLHITAPKPEDSATYLCVITTSGTYKYIFGTGTRLKVLA Vbeta: NAGVTQTPKFQVLKTGQSMTLQCAQDMNHNSMYWYRQDPGMGLRLIYYSASEGTTDKGEVPNGYNVSRLNKREFSLRLESAAPSQTSVYFCASTINTYEQYFGPGTRLTVT",binding result,[2],recognises
"Tenth group of TCR (TCR, V domains shown) Valpha: AQTVTQSQPEMSVQEAETVTLSCTYDTSESDYYLFWYKQPPSRQMILVIRQEAYKQQNATENRFSVNFQKAAKSFSLKISDSQLGDAAMYFCAYRSFYTGANSKLTFGKGITLSVRP Vbeta: DAGVTQSPTHLIKTRGQQVTLRCSPKSGHDTVSWYQQALGQGPQFIFQYYEEEERQRGNFPDRFSGHQFPNYSSELNVNALLLGDSALYLCASSLYGGPGDQPQHFGDGTRLSIL",binding result,[2],recognises
